Results as given in patent US20230357429A1 (JANUX THERAPEUTICS, published 2023).
Where a chain is given by its changes, count along the chain named. Numbers in names are those of the source. Read-outs that look alike come from different tables or passages of the source. Where no end group is shown, it is not given here.

B1: TBD-1 wt (Fab, V domains shown)
VH: QVQLQQSGSELKKPGASVKVSCKASGYTFTNYGMNWVKQAPGQGLKWMGWINTYTGEPTYTDDFKGRFAFSLDTSVSTAYLQISSLKADDTAVYFCARGGFGSSYWYFDVWGQGSLVTVSS
VL: DIQLTQSPSSLSASVGDRVSITCKASQDVSIAVAWYQQKPGKAPKLLIYSASYRYTGVPDRFSGSGSGTDFTLTISSLQPEDFAVYYCQQHYITPLTFGAGTKVEIKR
notes: Fab; the heavy chain entry is VH-CH1; also called wild-type anti-TROP2 Fab (hRS7); TROP2 Fab
B2: TBD-6 (LC I93A) (Fab, V domains shown)
VH: B1 VH
VL: B1 VL with I93A
notes: Fab; also called LC I93A mutant
B3: TBD-11 (HC R98A) (Fab, V domains shown)
VH: B1 VH with R98A
VL: B1 VL
notes: Fab; also called HC R98A mutant
B4: TBD-17 (HC S104A) (Fab, V domains shown)
VH: B1 VH with S104A
VL: B1 VL
notes: Fab; also called HC S104A mutant
B5: TBD-21 (HC F108A) (Fab, V domains shown)
VH: B1 VH with F108A
VL: B1 VL
notes: Fab; also called HC F108A mutant

Legend:
Assay in all cases: ELISA, Fab on captured biotin-peptide
Peptide-6 = target: T1, Peptide-6 (cysteine pairing not given here; also: biotinylated, site not given here)
T1 peptide: IDFCLIYNWPVCDT

Peptide-20 = target: T2, Peptide-20 (cysteine pairing not given here; also: biotinylated (site not given here))
T2 peptide: VDFCSFYRWPICET

Peptide-17 = target: T3, Peptide-17 (cysteine pairing not given here; also: biotinylated (site not given here))
T3 peptide: IDFCLLYDWPICGR

Peptide-27 = target: T4, Peptide-27 (cysteine pairing not given here; also: biotinylated, site not given here)
T4 peptide: FSLVCVRNLYCWNV

Peptide-18 = target: T5, Peptide-18 (cysteine pairing not given here; also: biotinylated (site not given here))
T5 peptide: MDFCQIYDWPICRL

Peptide-12 = target: T6, Peptide-12 (cysteine pairing not given here; also: biotinylated (site not given here))
T6 peptide: PDFCAVYRWPICYQ

Peptide-10 = target: T7, Peptide-10 (cysteine pairing not given here; also: biotinylated (site not given here))
T7 peptide: IDFCAIYQWPVCRS

Peptide-31 = target: T8, Peptide-31 (cysteine pairing not given here; also: biotinylated, site not given here)
T8 peptide: YSLVCVKNLYCWNL

Peptide-3 [1] = target: T9, Peptide-3 (cysteine pairing not given here; also: biotinylated, site not given here)
T9 peptide: IDFCMLYNWPICAG

Peptide-26 = target: T10, Peptide-26 (cysteine pairing not given here; also: biotinylated, site not given here)
T10 peptide: DNLICVKNLWCWIA

Peptide-5 = target: T11, Peptide-5 (cysteine pairing not given here; also: biotinylated, site not given here)
T11 peptide: VDFCKLYNWPVCQT

Peptide-2 = target: T12, Peptide-2 (cysteine pairing not given here; also: biotinylated (site not given here))
T12 peptide: IDFCAVYKWPVCQV

Peptide-8 [2] = target: T13, Peptide-8 (cysteine pairing not given here; also: biotinylated, site not given here)
T13 peptide: VDFCGLYHWPICYQ

Peptide-14 = target: T14, Peptide-14 (cysteine pairing not given here; also: biotinylated (site not given here))
T14 peptide: LDFCKIYDWPICHL

Peptide-29 = target: T15, Peptide-29 (cysteine pairing not given here; also: biotinylated, site not given here)
T15 peptide: SYLVCVKNVYCWTA

Peptide-7 = target: T16, Peptide-7 (cysteine pairing not given here; also: biotinylated, site not given here)
T16 peptide: EDFCKLYNWPICYQ

Peptide-36 = target: T17, Peptide-36 (cysteine pairing not given here; also: biotinylated, site not given here)
T17 peptide: VDFCYQYGWPICSR

Peptide-42 = target: T18, Peptide-42 (cysteine pairing not given here; also: biotinylated, site not given here)
T18 peptide: IDFCAMYHWPICDT

Peptide-35 = target: T19, Peptide-35 (cysteine pairing not given here; also: biotinylated, site not given here)
T19 peptide: EDFCYWYQWPICSD

Peptide-40 = target: T20, Peptide-40 (cysteine pairing not given here; also: biotinylated, site not given here)
T20 peptide: VDFCYLYSWPICTK

Peptide-64 = target: T21, Peptide-64 (cysteine pairing not given here; also: biotinylated, site not given here)
T21 peptide: PDFCAVYRWPICYQ

Peptide-32 = target: T22, Peptide-32 (cysteine pairing not given here; also: biotinylated, site not given here)
T22 peptide: PDFCYMYGWPICDS

Peptide-63 = target: T23, Peptide-63 (cysteine pairing not given here; also: biotinylated, site not given here)
T23 peptide: IDFCLIYNWPVCDT

Peptide-43 = target: T24, Peptide-43 (cysteine pairing not given here; also: biotinylated, site not given here)
T24 peptide: VDFCALYHWPICYQ

Peptide-3 [3] = target: T9, Peptide-3
Method: (§1) Binding was measured in a standard ELISA format. […] Bound TBDs were detected using a standard horse radish peroxidase conjugate secondary antibody. The ELISA signal was plotted versus the log-scale concentration of TBD. The concentrations of TBD required to observe half maximal binding signal (EC₅₀s) were calculated using Graphpad Prism software.

Peptide-33 = target: T25, Peptide-33 (cysteine pairing not given here; also: biotinylated, site not given here)
T25 peptide: PDFCYMYNWPVCVT

Peptide-39 = target: T26, Peptide-39 (cysteine pairing not given here; also: biotinylated, site not given here)
T26 peptide: VDFCGLYHWPICYQVD

Peptide-25 = target: T27, Peptide-25 (cysteine pairing not given here; also: biotinylated (site not given here))
T27 peptide: VDFCKIYSWPVCHQ

Peptide-8 [4] = target: T13, Peptide-8
Method: as §1

Peptide-41 = target: T28, Peptide-41 (cysteine pairing not given here; also: biotinylated, site not given here)
T28 peptide: VDFCGLYHWPICYQVY

Peptide-38 = target: T29, Peptide-38 (cysteine pairing not given here; also: biotinylated, site not given here)
T29 peptide: VDFCSIYHWPVCYV

Peptide-62 = target: T30, Peptide-62 (cysteine pairing not given here; also: biotinylated, site not given here)
T30 peptide: IDFCAVYKWPVCQV

Peptide-37 = target: T31, Peptide-37 (cysteine pairing not given here; also: biotinylated, site not given here)
T31 peptide: VDFCYLYNWPVCSK

| Binder | EC50 (Peptide-6) [nM] | EC50 (Peptide-17) [nM] | EC50 (Peptide-18) [nM] | EC50 (Peptide-12) [nM] | EC50 (Peptide-10) [nM] | EC50 (Peptide-3 [1]) [nM] | EC50 (Peptide-5) [nM] | EC50 (Peptide-2) [nM] | EC50 (Peptide-8 [2]) [nM] | EC50 (Peptide-14) [nM] | EC50 (Peptide-7) [nM] | EC50 (Peptide-36) [nM] | EC50 (Peptide-42) [nM] | EC50 (Peptide-40) [nM] | EC50 (Peptide-64) [nM] | EC50 (Peptide-32) [nM] | EC50 (Peptide-63) [nM] | EC50 (Peptide-43) [nM] | EC50 (Peptide-3 [3]) [nM] | EC50 (Peptide-33) [nM] | also measured |
| --- | --- | --- | --- | --- | --- | --- | --- | --- | --- | --- | --- | --- | --- | --- | --- | --- | --- | --- | --- | --- | --- |
| B1 | 28.5 | 132 | 474 | 35.9 | 62.6 | 12.8 | 16.5 | 13.7 | 40.2 | 379 | 37.5 | 41.4 | 28.5 | 39.7 | 28.3 | 34.6 | 162 | 27.5 | 164 | 29.7 | EC50 (Peptide-20): 600 nM; EC50 (Peptide-27): 23.9 nM; EC50 (Peptide-31): 42.1 nM; EC50 (Peptide-26): 85 nM; EC50 (Peptide-29): 6.7 nM; EC50 (Peptide-35): 261 nM; EC50 (Peptide-39): 95.2 nM; EC50 (Peptide-25): 217 nM; EC50 (Peptide-8 [4]): 35.2 nM; EC50 (Peptide-41): 102 nM; EC50 (Peptide-38): 178 nM; EC50 (Peptide-62): 81.4 nM; EC50 (Peptide-37): 31.7 nM |
| B2 | 15 | 16.5 | 83.2 | 18.2 | 8.5 | 11.4 | 9.9 | 9.9 | 18.8 | 145 | 59.6 | 23.8 | 5.7 | 30.4 | 6.4 | 20.1 | 9.5 | 7.2 | 18.3 | 9.6 | EC50 (Peptide-20): 140 nM; EC50 (Peptide-27): 178 nM; EC50 (Peptide-31): 791 nM; EC50 (Peptide-29): 43.8 nM; EC50 (Peptide-35): 131 nM; EC50 (Peptide-39): 32.1 nM; EC50 (Peptide-25): 10.9 nM; EC50 (Peptide-8 [4]): 8.5 nM; EC50 (Peptide-41): 41 nM; EC50 (Peptide-38): 9.8 nM; EC50 (Peptide-62): 5.1 nM; EC50 (Peptide-37): 9.3 nM |
| B3 | 363 | 191 | 298 | 157 | 272 | 246 | 232 | 204 | 156 | 332 | 343 | 60.1 | 86.4 | 310 | 61.7 | 87.7 | 229 | 77.5 | 296 | 144 | EC50 (Peptide-39): 151 nM; EC50 (Peptide-8 [4]): 86.4 nM; EC50 (Peptide-41): 159 nM; EC50 (Peptide-38): 290 nM; EC50 (Peptide-62): 136 nM; EC50 (Peptide-37): 149 nM |
| B4 | 10.1 | 8.5 | 36.7 | 6.8 | 6.5 | 6.4 | 5.4 | 5.7 | 8.2 | 71 | 15.6 | 30.2 | 5.5 | 27 | 3.8 | 35.1 | 30 | 4.9 | 23 | 24.1 | EC50 (Peptide-20): 115 nM; EC50 (Peptide-27): 107 nM; EC50 (Peptide-31): 164 nM; EC50 (Peptide-26): 379 nM; EC50 (Peptide-29): 24.8 nM; EC50 (Peptide-35): 215 nM; EC50 (Peptide-39): 16.4 nM; EC50 (Peptide-25): 35 nM; EC50 (Peptide-8 [4]): 8 nM; EC50 (Peptide-41): 28.9 nM; EC50 (Peptide-38): 31.8 nM; EC50 (Peptide-62): 9.2 nM; EC50 (Peptide-37): 19.5 nM |
| B5 | 24.9 | 16.4 | 38 | 10.1 | 15.2 | 12.3 | 15.6 | 12.9 | 13 | 53.3 | 27.4 | 27 | 13.8 | 45.8 | 11 | 27.1 | 39.7 | 12 | 30.8 | 22.9 | EC50 (Peptide-20): 89 nM; EC50 (Peptide-27): 149 nM; EC50 (Peptide-26): 390 nM; EC50 (Peptide-29): 23.4 nM; EC50 (Peptide-35): 331 nM; EC50 (Peptide-39): 32.7 nM; EC50 (Peptide-25): 42.3 nM; EC50 (Peptide-8 [4]): 12.9 nM; EC50 (Peptide-41): 47.2 nM; EC50 (Peptide-38): 26.1 nM; EC50 (Peptide-62): 14.3 nM; EC50 (Peptide-37): 27.3 nM |
